# US20220204643A1 (published 2022)
# T1: glucuronidase, beta pseudogene (human)
# T1 construct: on protein array; also called BC025996.2_frag
# T1 chain: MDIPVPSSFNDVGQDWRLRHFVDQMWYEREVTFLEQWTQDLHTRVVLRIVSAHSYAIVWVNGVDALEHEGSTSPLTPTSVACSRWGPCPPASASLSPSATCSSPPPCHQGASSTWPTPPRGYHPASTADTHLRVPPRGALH
# T2: oxidation resistance 1, transcript variant 1 (human, UniProt Q8N573 90-874, limits assumed)
# T2 construct: on protein array; also called OXR1
# T2 sequence: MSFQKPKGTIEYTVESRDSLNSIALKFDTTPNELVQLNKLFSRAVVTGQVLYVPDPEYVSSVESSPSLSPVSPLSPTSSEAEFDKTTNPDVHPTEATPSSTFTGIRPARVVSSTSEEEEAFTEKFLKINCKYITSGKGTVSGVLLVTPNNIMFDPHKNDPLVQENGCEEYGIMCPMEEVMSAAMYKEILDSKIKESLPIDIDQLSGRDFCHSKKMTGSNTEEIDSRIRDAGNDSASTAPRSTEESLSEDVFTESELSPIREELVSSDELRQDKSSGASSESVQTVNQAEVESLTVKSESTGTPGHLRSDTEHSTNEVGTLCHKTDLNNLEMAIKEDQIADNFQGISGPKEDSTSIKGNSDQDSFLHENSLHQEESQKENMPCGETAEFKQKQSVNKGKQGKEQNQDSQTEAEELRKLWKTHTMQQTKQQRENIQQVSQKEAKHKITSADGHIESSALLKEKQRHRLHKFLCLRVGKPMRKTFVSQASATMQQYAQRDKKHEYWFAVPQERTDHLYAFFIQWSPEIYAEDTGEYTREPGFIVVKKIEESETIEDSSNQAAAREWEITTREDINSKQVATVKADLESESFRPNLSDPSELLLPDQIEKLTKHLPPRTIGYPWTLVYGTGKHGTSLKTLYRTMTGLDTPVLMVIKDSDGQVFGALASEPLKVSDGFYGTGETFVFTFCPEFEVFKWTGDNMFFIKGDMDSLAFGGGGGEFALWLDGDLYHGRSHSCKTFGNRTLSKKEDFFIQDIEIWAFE
# T3: Kirre like nephrin family adhesion molecule 1 (human, UniProt Q96J84 17-757)
# T3 construct: on protein array
# T3 sequence: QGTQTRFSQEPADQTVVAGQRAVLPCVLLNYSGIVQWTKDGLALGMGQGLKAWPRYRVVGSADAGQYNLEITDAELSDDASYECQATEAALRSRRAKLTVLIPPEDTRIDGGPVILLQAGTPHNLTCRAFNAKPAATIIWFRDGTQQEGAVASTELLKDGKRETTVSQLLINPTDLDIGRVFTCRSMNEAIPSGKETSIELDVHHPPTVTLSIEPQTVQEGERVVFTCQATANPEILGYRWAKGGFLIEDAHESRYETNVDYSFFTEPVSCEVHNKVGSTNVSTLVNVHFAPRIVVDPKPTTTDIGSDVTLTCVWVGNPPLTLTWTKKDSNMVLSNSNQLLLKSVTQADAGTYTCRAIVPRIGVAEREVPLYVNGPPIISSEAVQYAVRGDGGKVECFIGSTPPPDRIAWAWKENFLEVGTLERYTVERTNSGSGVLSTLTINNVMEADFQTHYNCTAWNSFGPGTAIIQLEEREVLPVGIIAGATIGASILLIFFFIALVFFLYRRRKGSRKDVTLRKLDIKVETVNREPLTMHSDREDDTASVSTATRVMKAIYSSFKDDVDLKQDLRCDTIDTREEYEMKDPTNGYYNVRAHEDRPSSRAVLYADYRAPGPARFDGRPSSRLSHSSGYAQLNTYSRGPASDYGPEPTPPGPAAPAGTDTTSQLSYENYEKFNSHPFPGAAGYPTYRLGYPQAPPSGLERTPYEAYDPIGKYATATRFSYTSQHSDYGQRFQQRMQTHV
# T4: GRB10 interacting GYF protein 1, transcript variant X10 (human, UniProt O75420 1-1035)
# T4 construct: on protein array; also called GIGYF1
# T4 sequence: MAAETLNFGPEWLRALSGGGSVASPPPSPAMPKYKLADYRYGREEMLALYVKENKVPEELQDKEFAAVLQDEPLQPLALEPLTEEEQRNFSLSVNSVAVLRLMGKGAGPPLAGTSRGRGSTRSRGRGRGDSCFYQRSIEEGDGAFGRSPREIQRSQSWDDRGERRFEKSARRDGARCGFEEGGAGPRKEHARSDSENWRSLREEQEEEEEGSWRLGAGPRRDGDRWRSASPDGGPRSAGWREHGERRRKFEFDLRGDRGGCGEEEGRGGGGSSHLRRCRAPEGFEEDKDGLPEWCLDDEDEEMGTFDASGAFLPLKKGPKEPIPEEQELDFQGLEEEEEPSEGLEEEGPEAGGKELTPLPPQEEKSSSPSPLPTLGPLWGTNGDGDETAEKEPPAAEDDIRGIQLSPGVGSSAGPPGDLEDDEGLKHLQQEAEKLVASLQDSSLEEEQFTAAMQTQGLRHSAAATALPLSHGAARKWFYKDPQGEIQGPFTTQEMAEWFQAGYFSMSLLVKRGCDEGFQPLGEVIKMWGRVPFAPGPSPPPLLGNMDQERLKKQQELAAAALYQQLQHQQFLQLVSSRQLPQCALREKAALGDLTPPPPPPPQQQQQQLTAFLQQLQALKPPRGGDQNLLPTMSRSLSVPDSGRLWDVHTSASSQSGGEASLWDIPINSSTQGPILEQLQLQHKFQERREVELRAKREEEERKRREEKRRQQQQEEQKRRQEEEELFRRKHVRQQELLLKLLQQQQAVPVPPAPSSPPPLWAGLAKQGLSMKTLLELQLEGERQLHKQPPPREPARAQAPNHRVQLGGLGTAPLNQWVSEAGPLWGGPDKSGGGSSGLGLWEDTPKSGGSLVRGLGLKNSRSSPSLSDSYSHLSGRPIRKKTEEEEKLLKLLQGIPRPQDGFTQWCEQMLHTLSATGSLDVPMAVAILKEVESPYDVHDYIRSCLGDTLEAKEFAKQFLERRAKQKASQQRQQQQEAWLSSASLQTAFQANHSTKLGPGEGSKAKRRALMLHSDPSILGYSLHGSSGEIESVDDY
# T5: HSPA (Hsp70) binding protein 1, transcript variant 2 (human, UniProt Q9NZL4 1-359)
# T5 construct: on protein array; also called HSPBP1
# T5 sequence: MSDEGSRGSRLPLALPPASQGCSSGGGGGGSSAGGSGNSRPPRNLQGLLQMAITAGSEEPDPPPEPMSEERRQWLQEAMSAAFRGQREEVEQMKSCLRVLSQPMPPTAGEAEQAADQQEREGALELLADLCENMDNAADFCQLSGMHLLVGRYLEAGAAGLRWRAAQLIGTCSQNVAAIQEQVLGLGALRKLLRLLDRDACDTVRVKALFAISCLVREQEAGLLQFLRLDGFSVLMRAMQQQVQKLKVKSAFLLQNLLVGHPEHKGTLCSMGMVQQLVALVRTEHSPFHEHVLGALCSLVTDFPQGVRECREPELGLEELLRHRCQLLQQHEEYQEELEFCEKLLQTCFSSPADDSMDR
# T6: Long intergenic non-protein coding rna 242 (human, UniProt Q5T6M2 1-205)
# T6 construct: on protein array; also called LINC00242
# T6 chain: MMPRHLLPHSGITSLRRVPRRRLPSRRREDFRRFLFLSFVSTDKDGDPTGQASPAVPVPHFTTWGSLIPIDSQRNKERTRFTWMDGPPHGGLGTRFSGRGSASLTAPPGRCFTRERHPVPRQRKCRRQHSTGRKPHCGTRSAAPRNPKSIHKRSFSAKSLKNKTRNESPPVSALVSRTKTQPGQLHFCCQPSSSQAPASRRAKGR
# B1: TBRE1006 (antibody, V domains shown)
# VH: QVQLVQSGAEVKKPGASVKVSCKASGYIFTSYAIHWVRQAPGQRLEWMGWINAGNGNTKYSQKFQGRVTITRDTSANTAYMELSSLRSEDTAIYYCARDIAVAITNYFGSWGQGTLVTVSS
# VL: EIVLTQSPATLSLSPGERATLSCRASQSVGSYLAWYQQKPGQAPRLLIYDASNRATGIPARFSGSGSGTDFTLTISSLEPEDFAVYYCQQGSNWLALTFGGGTKVEIKR
# notes: VH/VL only
# B2: TPRO1001 (antibody, V domains shown)
# VH: EVQLVQSGAEVKKPGESLRISCKGSGYSFTSFWISWVRQMPGKGLEWMGRIDPSDSYTNYSPSFQGHVTISADKSISTAFLQWSSLKASDTAMYYCARHQQKYSPISPLDYWGQGTLVTVSS
# VL: QSALTQPASVSGSPGQSITISCTGTSSDVGGYNYVSWYQQHPGKAPKLMIYDVSNRPSGVSNRFSGSKSGNTASLTISGLQAEDEADYYCSSYTSSSSLVFGGGTKVTVLG
# notes: VH/VL tied via antigen in summary, not by name in this stretch
# B3: TPRO1002 (antibody, V domains shown)
# VH: EVQLVESGGGVIKPGGSLKLSCEGSGFTLDDYVMHWVRQAPGKGLEWISSISGDGTRTYYADSVKGRFTISRNNGKNSLYLQMDSLRREDTALYYCAKDARLAYYGMDVWGQGTTVTVSS
# VL: QSALTQPASVSGSPGQSITISCTGTSSDIGGYDLVSWYQHHPGKAPKLVISEGSKRPSGVSNRFFGSKSGNTASLTISGLQAEDEADYYCCSFTGTSTFVFGTGTKVTVL
# notes: as for B2
# B4: TREC1003 (antibody, V domains shown)
# VH: QVQLVQSGSEVKKPGASVRLACKTSGYTFSNYGVSWVRQGPGRGLEWLGWISGYNGRTHSADKFRDRVTLTTDTSTTTVYVDLKNLTSDDTAVYYCARVGTSHWYSDSWGQGTLVTVSS
# VL: QSVLTQPPSVSGAPGQRVTISCAGSYSNIGAGYDVHWYRQLPGTAPTLLIYSNNNRPSGVSDRFSGSKSGTSASLAITGLQAEDEADYYCQSFDSSLSRSVFGTGTKVTVL
# notes: as for B2
# B5: TSAR1001 (antibody, V domains shown)
# VH: EVQLVESGGGMVQPGESLRLSCAASGFDFTSYWMAWVRQAPGKGLEWVANMNADGSEKHYVDSVKGRFSISRDNAKKLLFLQMNSLTVDDTGVYYCARDEGRREGAWGQGTQVIVSA
# VL: EIVLTQSPATLSFSPGDRATLSCRASQNINRFLAWYQQKPGQTPRLLIYDASTRATGIPARFSGSGSGTDFSLIISSLEPEDFAIYYCQQRNNWPITFGPGTKVDVK
# notes: as for B2
# B6: TSAR1003 (antibody, V domains shown)
# VH: QLQLQESGPGLVKPSETLSLTCTVSGVSIGTSSYYWGWIRQPPAKGLEWIGSIYYSGSTYYNPSLKNRVTISVDTSKNHFSLKLSSVTAADTAVYYCARHRTGQYYYNSWGQGTLVTVSS
# VL: SSELTQDPAVSVALGQTVRITCQGDSLRTDYATWYQQKPGQAPILVFYGEDNRPSGIPDRFSGSSSGNTASLTITGAQAEDEADYYCNSRDSSGHHWVFGGGTKLTVL
# notes: as for B2
# B7: TSAR1005 (antibody, V domains shown)
# VH: QVQLVESGGGVVQPGRSLRLSCVASGFTFSNYAMHWVRQAPGKGLEWVAVIWYDGSNEYYRDSVEGRFTISRDSSKNTLYLLVNSLRAEDTAVYYCARGNGPKSGKYSDFDYWGQGTLVTVSS
# VL: DVVMTQSPLSLPVTLGQAASISCRSSQSLVYSDGNTYLNWFQQRPGQSPRRLIYKVSNRESGVPDRFSGSGSGTDFTLQISRVEAEDVGIYYCMQGAHWPPITFGQGTRLEIKR
# notes: as for B2
# B8: TSAR1006 (antibody, V domains shown)
# VH: QVQLVQSGTEVKKPGASVKVSCKASGYRFTSNGISWVRQAPGQGLQWMGWISTDSGNTNYAQSFQGRVTLTRDTSTNTAYLELRRLRSEDTAVYYCARDKSWYFDYWGQGTLVSVSS
# VL: SYELTQPPSVSVSPGQTARITCSGDALPKKYVFWYQQRSGQAPVLVIYEDSKRPSGIPDRFSGSSSGTLATLTISGAQVEDEADYYCYSTDTIGNWVFGGGTRLTVL
# notes: as for B2
# Experiments:
# Experiment in all cases: protein array
# [1] = target: T1, glucuronidase, beta pseudogene
# [2] = target: T2, oxidation resistance 1, transcript …
# [3] = target: T3, Kirre like nephrin family adhesion …
# [4] = target: T7, Ankyrin repeat domain 20 family member a5, pseudogene (human, UniProt A0PJZ0 1-165)
# T7 construct: on protein array; also called ANKRD20A5P
# T7 sequence (A0PJZ0 whole entry, the tested form may be a part): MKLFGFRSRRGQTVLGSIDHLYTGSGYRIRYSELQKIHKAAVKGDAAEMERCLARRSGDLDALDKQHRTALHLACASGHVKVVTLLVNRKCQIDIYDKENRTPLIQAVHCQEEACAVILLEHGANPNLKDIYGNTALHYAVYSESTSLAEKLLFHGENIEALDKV
# [5] = target: T4, GRB10 interacting GYF protein 1, …
# [6] = target: T8, killer cell lectin like receptor Cl, transcript variant 3 (human, UniProt P26715 1-233)
# T8 construct: on protein array; also called KLRC1
# T8 sequence (P26715 other isoform, or with tags, fused parts or gaps mutant limits assumed): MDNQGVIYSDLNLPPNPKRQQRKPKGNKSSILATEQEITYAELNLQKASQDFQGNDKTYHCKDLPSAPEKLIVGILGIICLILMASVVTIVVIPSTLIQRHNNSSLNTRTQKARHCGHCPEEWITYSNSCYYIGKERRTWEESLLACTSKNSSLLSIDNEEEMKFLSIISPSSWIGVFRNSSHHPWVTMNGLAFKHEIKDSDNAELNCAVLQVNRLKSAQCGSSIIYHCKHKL
# [7] = target: T9, neural retina leucine zipper, transcript variant X4 (human, UniProt P54845 1-237)
# T9 construct: on protein array; also called NRL
# T9 sequence (P54845 whole entry, change not shown): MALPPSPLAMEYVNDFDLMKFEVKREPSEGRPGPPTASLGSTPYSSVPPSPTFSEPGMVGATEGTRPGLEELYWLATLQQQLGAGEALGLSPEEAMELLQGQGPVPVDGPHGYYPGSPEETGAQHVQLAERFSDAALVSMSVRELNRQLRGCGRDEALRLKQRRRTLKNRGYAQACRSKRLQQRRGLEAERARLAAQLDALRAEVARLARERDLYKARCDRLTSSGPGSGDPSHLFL
# [8] = target: T10, coiled-coil domain containing 74B, transcript variant 2 (human, UniProt Q96LY2 1-380)
# T10 construct: on protein array; also called CCDC74B
# T10 sequence (Q96LY2 other isoform, or with tags, fused parts or gaps mutant limits assumed): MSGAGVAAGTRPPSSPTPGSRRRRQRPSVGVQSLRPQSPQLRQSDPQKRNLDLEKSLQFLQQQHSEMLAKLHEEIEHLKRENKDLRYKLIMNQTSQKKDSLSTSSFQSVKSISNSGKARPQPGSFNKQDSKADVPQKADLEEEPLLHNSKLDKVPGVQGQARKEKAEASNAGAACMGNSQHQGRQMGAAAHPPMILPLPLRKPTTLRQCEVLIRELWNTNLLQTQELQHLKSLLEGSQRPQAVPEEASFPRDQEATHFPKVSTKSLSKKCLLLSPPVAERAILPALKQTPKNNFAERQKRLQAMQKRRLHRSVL
# [9] = target: T5, HSPA (Hsp70) binding protein 1, …
# [10] = target: T11, heat shock protein family A (Hsp70) member 2 (human, UniProt P54652 1-639)
# T11 construct: on protein array; also called HSPA2
# T11 sequence (P54652 whole entry): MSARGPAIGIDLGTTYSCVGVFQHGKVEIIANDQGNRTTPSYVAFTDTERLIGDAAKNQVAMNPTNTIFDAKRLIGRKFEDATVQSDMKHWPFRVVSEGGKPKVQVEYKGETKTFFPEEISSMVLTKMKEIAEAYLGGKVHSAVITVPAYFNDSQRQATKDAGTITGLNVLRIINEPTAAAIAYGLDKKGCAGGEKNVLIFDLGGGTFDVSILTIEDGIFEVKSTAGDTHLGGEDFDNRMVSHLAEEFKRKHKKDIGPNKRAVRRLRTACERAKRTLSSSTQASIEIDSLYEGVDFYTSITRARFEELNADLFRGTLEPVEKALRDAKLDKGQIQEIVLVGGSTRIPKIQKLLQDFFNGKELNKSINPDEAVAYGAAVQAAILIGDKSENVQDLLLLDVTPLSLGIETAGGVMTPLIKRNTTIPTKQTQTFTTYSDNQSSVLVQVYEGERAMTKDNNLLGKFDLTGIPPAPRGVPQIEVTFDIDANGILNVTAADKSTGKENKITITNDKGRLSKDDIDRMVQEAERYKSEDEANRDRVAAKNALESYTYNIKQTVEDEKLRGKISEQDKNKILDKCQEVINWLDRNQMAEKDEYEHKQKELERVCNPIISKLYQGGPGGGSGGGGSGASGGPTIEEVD
# [11] = target: T12, BCL2 associated athanogene 2 (human, UniProt O95816 2-211)
# T12 construct: on protein array; also called BAG2
# T12 sequence (O95816 2-211 limits assumed): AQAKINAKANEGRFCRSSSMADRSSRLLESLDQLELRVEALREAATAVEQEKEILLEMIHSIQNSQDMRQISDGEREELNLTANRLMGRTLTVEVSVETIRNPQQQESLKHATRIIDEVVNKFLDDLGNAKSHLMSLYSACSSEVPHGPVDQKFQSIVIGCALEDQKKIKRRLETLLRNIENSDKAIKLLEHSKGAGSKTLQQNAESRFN
# [12] = target: T6, Long intergenic non-protein coding rna …
# [13] = target: T13, C-X-C motif chemokine receptor 4, transcript variant 2 (human, UniProt P61073 1-352)
# T13 construct: on protein array; also called CXCR4
# T13 sequence (P61073 whole entry, change not shown): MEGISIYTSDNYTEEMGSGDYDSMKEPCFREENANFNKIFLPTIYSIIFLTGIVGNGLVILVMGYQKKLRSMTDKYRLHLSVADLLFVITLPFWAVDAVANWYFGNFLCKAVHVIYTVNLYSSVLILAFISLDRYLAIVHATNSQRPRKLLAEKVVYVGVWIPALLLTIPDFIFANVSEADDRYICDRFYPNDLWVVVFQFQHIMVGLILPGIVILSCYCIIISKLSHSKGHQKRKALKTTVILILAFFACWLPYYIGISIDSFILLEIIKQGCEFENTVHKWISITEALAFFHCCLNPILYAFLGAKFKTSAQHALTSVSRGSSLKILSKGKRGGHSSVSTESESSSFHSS
binder,measurement,setting,value
B1,binding result,[1],binds
B2,binding result,[2],binds
B3,binding result,[3],binds
same,binding result,[4],binds
same,binding result,[5],binds
B4,binding result,[6],binds
B5,binding result,[7],binds
B6,binding result,[8],binds
B7,binding result,[9],binds
same,binding result,[10],binds
same,binding result,[11],binds
B8,binding result,[12],binds
same,binding result,[13],binds
